B1: PCDHGA10 (parent)
chain: FGIEIEVTDINDNAPKFQAENLDV
B2: STEAP1 (parent)
chain: WMLTRKQFGLLSFFFAVLHAIYSL

Variants of: B1
Experiment: protein stability index of a GFP-peptide fusion (GPS, HEK-293T) (PSI 1-6); higher = more stable
Settings: c terminus: a fixed tail appended
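Further: lentivirally expressed fusions sorted by FACS into six bins by GFP to DsRed ratio, PSI derived from sequencing read proportions per bin multiplied by bin number.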

Protein stability index: each site, then its substitutions
T8: R 2.32; C 2.48; Q 2.78; D 3.79; P 3.75; L 1.89; I 1.76; E 3.32; F 1.68; H 2.78; K 3.33; N 3.81; G 3.27; W 2.27; Y 1.17; M 2.19; V 2.08; A 2.88; S 2.77
G2: H 2.18; T 1.78; V 1.64; F 1.86; I 2.57; R 1.49; S 1.92; M 1.9; P 4.63; Q 2.09; E 1.88; L 2.17; C 2; Y 3; N 1.9; A 2.02; K 1.52; D 2.72
E4: I 1.75; P 4.33; M 1.73; C 2.6; N 3.34; Y 1.73; V 2.24; A 2.46; H 2.2; Q 2.47; T 2.12; S 2.5; K 2.11; W 2.5; G 3.42; R 2.18; L 2.28; D 3.44; F 1.66
V7: D 5.46; W 1.78; A 4.33; Y 2.93; H 4.74; I 2.29; T 4.45; P 4.72; M 3.18; Q 4.8; L 2.45; C 3.75; N 4.46; R 4.14; S 4.63; F 2.25; G 4.3; E 4.74; K 4.21
I5: H 4.91; D 4.58; P 5.13; A 4.42; G 5.02; R 4.79; M 3.86; E 5.17; N 5.05; C 4.28; K 4.92; Y 3.85; W 3.05; L 3.94; F 3.49; Q 4.71; S 5.39; T 5.08; V 3.48
D9: E 2.69; C 1.95; F 2.69; H 1.81; A 1.98; G 2.15
I3: V 3.65; K 4.73; G 4.73; Y 3.84; M 3.96; D 4.76; A 4.52; S 5.2; Q 4.79; T 4.65; L 4.08; F 2.71; R 4.52; P 4.96; W 3.62; H 4.88; N 4.68; E 5.11; C 4.43
F1: C 3.59; Y 3.52; L 3.05; V 2.93; H 4.67; E 4.8; S 4.75; W 2.54; R 4.17; I 2.57; M 3.52; A 4.72; N 4.69; K 4.39; Q 4.58; D 4.71; T 4.93; G 4.49; P 5.08
E6: Q 2.39; A 3.25; L 1.86; T 1.98; H 2.19; C 1.58; V 2.04; S 2.69; M 1.41; W 2.9; R 1.7; Y 2.23; K 2.77; D 3.62; N 3.02; P 4.08; G 3.56; I 2.05; F 2.43

Variants of: B2
Experiment: as above
Settings: c terminus: a fixed tail appended

Protein stability index: each site, then its substitutions
L24: Y 2; Q 1.94; W 2.13; F 1.46; A 1.91; R 1.84; N 1.98; K 3.44; H 1.83; C 2; S 2.14; M 1.97; G 2.74; T 2.26; E 1.4; D 2.7; V 2.27; P 2.08; I 1.86
H19: A 3.76; D 1.82; T 2.67; R 1.74; P 3.26; N 1.89; G 2.77; Q 2.22; S 2.34; V 3.14; E 1.65; F 2.76; M 3.02; I 2.58; L 2.59; C 2.94; W 3.67; K 2.16; Y 3.25
I21: L 3.18; H 3.26; Y 1.95; P 3.02; F 2.26; S 2.16; R 3.01; C 2.21; W 1.63; T 1.05; V 2.18; E 4.75; Q 1.61; N 2.81; G 2.17; A 3.66; M 1.66; D 3.17; K 2.41
A20: T 1.36; E 2.56; I 1.88; S 2.41; K 1.78; Q 2.69; Y 2.1; L 2.46; V 1.08; N 2.02; G 2.13; H 1.62; F 2.8; M 1.66; P 2.51; W 1.79; D 2.62; R 1.73; C 2.18
F15: P 1.78; Y 1.71; R 1.7; W 1.55; S 1.74; N 1.4; V 1.51; T 1.32; Q 2.62
L18: H 2.03; Y 2.13; S 1.86; P 3.09; V 1.66; K 3.01; Q 2.82; I 2; T 1.92; W 1.74; F 1.63; R 1.8; A 2.43; D 3.5; G 2.66; E 3.98; C 2.75
V17: G 2.58; C 2.6; W 2.33; Y 2.99; D 5.3; T 2.33; I 1.73; N 4.05; Q 3.15; P 2.19; H 3.31; E 2.34; S 2.07; A 2.25; M 2.85; K 2.53; F 3.24; L 1.7
S23: T 1.55; Y 2.37; K 2.01; P 1.89; D 1.95; G 1.48; H 1.71; R 2.43; N 2.21; L 1.27; M 2.3; W 2; C 1.75; E 1.49; I 1.92; V 1.94; A 1.36; Q 1.39; F 1.79
Y22: E 2.93; S 1.63; V 2.48; I 1.1; Q 2.21; H 2.1; L 1.79; M 2.45; T 2.03; R 2.46; N 1.34; C 2.43; F 1.56; P 2.29; W 1.99; K 2.29; A 1.58; D 2.97; G 2.2
A16: G 1.77; W 2.19; K 1.46; Q 1.52; C 1.69; S 1.45; Y 1.54; F 1.93; R 1.93; D 2.07; I 1.77; L 1.64; V 1.51; M 1.13; T 2.63; N 1.88; E 1.67; P 1.59; H 1.76

Reference: the supplement of paper PMC10567573
